From patent publication US20110118447A1

Experiments:
[1] = molecular target: binding partner of C5A (XPA23); test: Biacore
[2] = molecular target: binding partner of C5A (XPA23); test: Biacore, K-off

fold affinity vs original [1] | fold difference in affinity vs original [2] | fold difference in affinity vs original [1] | Binder
0.9 fold | 0.9 fold |  | C5A (XPA23) VH G55Q (antibody, V domains shown) VH: EVQLLESGGGLVQPGGSLRLSCAASGFTFSKYFMFWVRQAPGKGLEWVSVISPSQGMTRYADSVKGRFTISRDNSKNTLYLQMNSLRAEDTAVYYCARVGYGGNSDYWGQGTLVTVSS VL: DIQMTQSPSSVSASVGDRLTIICRASQDINRWLAWYQQTPGNAPKLLIHSATSLQSGVPSRFSGSGSGTDFTLTINSLQPEDFATYYCQQADSFPLTFGGGTKVEIK
0.04 fold | 0.04 fold |  | C5A (XPA23) VH M57S (antibody, V domains shown) VH: EVQLLESGGGLVQPGGSLRLSCAASGFTFSKYFMFWVRQAPGKGLEWVSVISPSGGSTRYADSVKGRFTISRDNSKNTLYLQMNSLRAEDTAVYYCARVGYGGNSDYWGQGTLVTVSS VL: DIQMTQSPSSVSASVGDRLTIICRASQDINRWLAWYQQTPGNAPKLLIHSATSLQSGVPSRFSGSGSGTDFTLTINSLQPEDFATYYCQQADSFPLTFGGGTKVEIK
0.05 fold | 0.05 fold |  | C5A (XPA23) VH G56D (antibody, V domains shown) VH: EVQLLESGGGLVQPGGSLRLSCAASGFTFSKYFMFWVRQAPGKGLEWVSVISPSGDMTRYADSVKGRFTISRDNSKNTLYLQMNSLRAEDTAVYYCARVGYGGNSDYWGQGTLVTVSS VL: DIQMTQSPSSVSASVGDRLTIICRASQDINRWLAWYQQTPGNAPKLLIHSATSLQSGVPSRFSGSGSGTDFTLTINSLQPEDFATYYCQQADSFPLTFGGGTKVEIK
0.08 fold | 0.08 fold |  | C5A (XPA23) VH G55Y (antibody, V domains shown) VH: EVQLLESGGGLVQPGGSLRLSCAASGFTFSKYFMFWVRQAPGKGLEWVSVISPSYGMTRYADSVKGRFTISRDNSKNTLYLQMNSLRAEDTAVYYCARVGYGGNSDYWGQGTLVTVSS VL: DIQMTQSPSSVSASVGDRLTIICRASQDINRWLAWYQQTPGNAPKLLIHSATSLQSGVPSRFSGSGSGTDFTLTINSLQPEDFATYYCQQADSFPLTFGGGTKVEIK
 | 0.06 fold | 0.06 fold | C5A (XPA23) VH M57T (antibody, V domains shown) VH: EVQLLESGGGLVQPGGSLRLSCAASGFTFSKYFMFWVRQAPGKGLEWVSVISPSGGTTRYADSVKGRFTISRDNSKNTLYLQMNSLRAEDTAVYYCARVGYGGNSDYWGQGTLVTVSS VL: DIQMTQSPSSVSASVGDRLTIICRASQDINRWLAWYQQTPGNAPKLLIHSATSLQSGVPSRFSGSGSGTDFTLTINSLQPEDFATYYCQQADSFPLTFGGGTKVEIK
1.27 fold | 1.27 fold |  | C5A (XPA23) VH G56Y (antibody, V domains shown) VH: EVQLLESGGGLVQPGGSLRLSCAASGFTFSKYFMFWVRQAPGKGLEWVSVISPSGYMTRYADSVKGRFTISRDNSKNTLYLQMNSLRAEDTAVYYCARVGYGGNSDYWGQGTLVTVSS VL: DIQMTQSPSSVSASVGDRLTIICRASQDINRWLAWYQQTPGNAPKLLIHSATSLQSGVPSRFSGSGSGTDFTLTINSLQPEDFATYYCQQADSFPLTFGGGTKVEIK
0.02 fold | 0.02 fold |  | C5A (XPA23) VH M57Q (antibody, V domains shown) VH: EVQLLESGGGLVQPGGSLRLSCAASGFTFSKYFMFWVRQAPGKGLEWVSVISPSGGQTRYADSVKGRFTISRDNSKNTLYLQMNSLRAEDTAVYYCARVGYGGNSDYWGQGTLVTVSS VL: DIQMTQSPSSVSASVGDRLTIICRASQDINRWLAWYQQTPGNAPKLLIHSATSLQSGVPSRFSGSGSGTDFTLTINSLQPEDFATYYCQQADSFPLTFGGGTKVEIK
2.11 fold | 2.11 fold |  | C5A (XPA23) VH G56R (antibody, V domains shown) VH: EVQLLESGGGLVQPGGSLRLSCAASGFTFSKYFMFWVRQAPGKGLEWVSVISPSGRMTRYADSVKGRFTISRDNSKNTLYLQMNSLRAEDTAVYYCARVGYGGNSDYWGQGTLVTVSS VL: DIQMTQSPSSVSASVGDRLTIICRASQDINRWLAWYQQTPGNAPKLLIHSATSLQSGVPSRFSGSGSGTDFTLTINSLQPEDFATYYCQQADSFPLTFGGGTKVEIK
0.03 fold | 0.03 fold |  | C5A (XPA23) VH M57N (antibody, V domains shown) VH: EVQLLESGGGLVQPGGSLRLSCAASGFTFSKYFMFWVRQAPGKGLEWVSVISPSGGNTRYADSVKGRFTISRDNSKNTLYLQMNSLRAEDTAVYYCARVGYGGNSDYWGQGTLVTVSS VL: DIQMTQSPSSVSASVGDRLTIICRASQDINRWLAWYQQTPGNAPKLLIHSATSLQSGVPSRFSGSGSGTDFTLTINSLQPEDFATYYCQQADSFPLTFGGGTKVEIK
0.82 fold | 0.82 fold |  | C5A (XPA23) VH G56H (antibody, V domains shown) VH: EVQLLESGGGLVQPGGSLRLSCAASGFTFSKYFMFWVRQAPGKGLEWVSVISPSGHMTRYADSVKGRFTISRDNSKNTLYLQMNSLRAEDTAVYYCARVGYGGNSDYWGQGTLVTVSS VL: DIQMTQSPSSVSASVGDRLTIICRASQDINRWLAWYQQTPGNAPKLLIHSATSLQSGVPSRFSGSGSGTDFTLTINSLQPEDFATYYCQQADSFPLTFGGGTKVEIK
1.21 fold | 1.21 fold |  | C5A (XPA23) VH G56E (antibody, V domains shown) VH: EVQLLESGGGLVQPGGSLRLSCAASGFTFSKYFMFWVRQAPGKGLEWVSVISPSGEMTRYADSVKGRFTISRDNSKNTLYLQMNSLRAEDTAVYYCARVGYGGNSDYWGQGTLVTVSS VL: DIQMTQSPSSVSASVGDRLTIICRASQDINRWLAWYQQTPGNAPKLLIHSATSLQSGVPSRFSGSGSGTDFTLTINSLQPEDFATYYCQQADSFPLTFGGGTKVEIK
 | 1.11 fold | 1.11 fold | C5A (XPA23) VH G56T (antibody, V domains shown) VH: EVQLLESGGGLVQPGGSLRLSCAASGFTFSKYFMFWVRQAPGKGLEWVSVISPSGTMTRYADSVKGRFTISRDNSKNTLYLQMNSLRAEDTAVYYCARVGYGGNSDYWGQGTLVTVSS VL: DIQMTQSPSSVSASVGDRLTIICRASQDINRWLAWYQQTPGNAPKLLIHSATSLQSGVPSRFSGSGSGTDFTLTINSLQPEDFATYYCQQADSFPLTFGGGTKVEIK
0.12 fold | 0.12 fold |  | C5A (XPA23) VH T58D (antibody, V domains shown) VH: EVQLLESGGGLVQPGGSLRLSCAASGFTFSKYFMFWVRQAPGKGLEWVSVISPSGGMDRYADSVKGRFTISRDNSKNTLYLQMNSLRAEDTAVYYCARVGYGGNSDYWGQGTLVTVSS VL: DIQMTQSPSSVSASVGDRLTIICRASQDINRWLAWYQQTPGNAPKLLIHSATSLQSGVPSRFSGSGSGTDFTLTINSLQPEDFATYYCQQADSFPLTFGGGTKVEIK
0.08 fold | 0.08 fold |  | C5A (XPA23) VH M57H (antibody, V domains shown) VH: EVQLLESGGGLVQPGGSLRLSCAASGFTFSKYFMFWVRQAPGKGLEWVSVISPSGGHTRYADSVKGRFTISRDNSKNTLYLQMNSLRAEDTAVYYCARVGYGGNSDYWGQGTLVTVSS VL: DIQMTQSPSSVSASVGDRLTIICRASQDINRWLAWYQQTPGNAPKLLIHSATSLQSGVPSRFSGSGSGTDFTLTINSLQPEDFATYYCQQADSFPLTFGGGTKVEIK
0.06 fold | 0.06 fold |  | C5A (XPA23) VH M57R (antibody, V domains shown) VH: EVQLLESGGGLVQPGGSLRLSCAASGFTFSKYFMFWVRQAPGKGLEWVSVISPSGGRTRYADSVKGRFTISRDNSKNTLYLQMNSLRAEDTAVYYCARVGYGGNSDYWGQGTLVTVSS VL: DIQMTQSPSSVSASVGDRLTIICRASQDINRWLAWYQQTPGNAPKLLIHSATSLQSGVPSRFSGSGSGTDFTLTINSLQPEDFATYYCQQADSFPLTFGGGTKVEIK
1.06 fold | 1.06 fold |  | C5A (XPA23) VH G56N (antibody, V domains shown) VH: EVQLLESGGGLVQPGGSLRLSCAASGFTFSKYFMFWVRQAPGKGLEWVSVISPSGNMTRYADSVKGRFTISRDNSKNTLYLQMNSLRAEDTAVYYCARVGYGGNSDYWGQGTLVTVSS VL: DIQMTQSPSSVSASVGDRLTIICRASQDINRWLAWYQQTPGNAPKLLIHSATSLQSGVPSRFSGSGSGTDFTLTINSLQPEDFATYYCQQADSFPLTFGGGTKVEIK
1.31 fold | 1.31 fold |  | C5A (XPA23) VH G56Q (antibody, V domains shown) VH: EVQLLESGGGLVQPGGSLRLSCAASGFTFSKYFMFWVRQAPGKGLEWVSVISPSGQMTRYADSVKGRFTISRDNSKNTLYLQMNSLRAEDTAVYYCARVGYGGNSDYWGQGTLVTVSS VL: DIQMTQSPSSVSASVGDRLTIICRASQDINRWLAWYQQTPGNAPKLLIHSATSLQSGVPSRFSGSGSGTDFTLTINSLQPEDFATYYCQQADSFPLTFGGGTKVEIK
0.86 fold | 0.86 fold |  | C5A (XPA23) VH M57Y (antibody, V domains shown) VH: EVQLLESGGGLVQPGGSLRLSCAASGFTFSKYFMFWVRQAPGKGLEWVSVISPSGGYTRYADSVKGRFTISRDNSKNTLYLQMNSLRAEDTAVYYCARVGYGGNSDYWGQGTLVTVSS VL: DIQMTQSPSSVSASVGDRLTIICRASQDINRWLAWYQQTPGNAPKLLIHSATSLQSGVPSRFSGSGSGTDFTLTINSLQPEDFATYYCQQADSFPLTFGGGTKVEIK
0.04 fold | 0.04 fold |  | C5A (XPA23) VH M57K (antibody, V domains shown) VH: EVQLLESGGGLVQPGGSLRLSCAASGFTFSKYFMFWVRQAPGKGLEWVSVISPSGGKTRYADSVKGRFTISRDNSKNTLYLQMNSLRAEDTAVYYCARVGYGGNSDYWGQGTLVTVSS VL: DIQMTQSPSSVSASVGDRLTIICRASQDINRWLAWYQQTPGNAPKLLIHSATSLQSGVPSRFSGSGSGTDFTLTINSLQPEDFATYYCQQADSFPLTFGGGTKVEIK
2.05 fold | 2.05 fold |  | C5A (XPA23) VH G56K (antibody, V domains shown) VH: EVQLLESGGGLVQPGGSLRLSCAASGFTFSKYFMFWVRQAPGKGLEWVSVISPSGKMTRYADSVKGRFTISRDNSKNTLYLQMNSLRAEDTAVYYCARVGYGGNSDYWGQGTLVTVSS VL: DIQMTQSPSSVSASVGDRLTIICRASQDINRWLAWYQQTPGNAPKLLIHSATSLQSGVPSRFSGSGSGTDFTLTINSLQPEDFATYYCQQADSFPLTFGGGTKVEIK
